Reference: article PMC5490006 (Nature Communications, 2017)

How the values were obtained:
Mcm6 = biological target: T1, Mcm6 (budding yeast, UniProt P53091 1-1017); assay: pull-down; Cdt1 FLAG held on M2 anti-FLAG agarose, Mcm6 fl or ΔC in solution; 10 μg of each protein, buffer B, 60 min at 4 °C; eluted with FLAG peptide; Coomassie; conditions: both partners purified
T1 construct: Mcm6, subunit of the budding yeast MCM (Mcm2-7), expressed as an individual subunit; called Mcm6 fl and the full-length protein; also called Mcm6 fl; full-length Mcm6; source: E. coli, purified

[1] = biological target: T2, Mcm6 within purified Cdt1–MCM complexes (budding yeast, UniProt P53091 1-1017); assay: cross-linking; MCM-Cdt1 FLAG complex (200 μg) crosslinked with 20, 50 and 100 μM BS3; denatured with SDS; denaturing anti-FLAG immunoprecipitation; silver staining, bands identified by immunoblotting and mass spectrometry; conditions: both partners purified
T2 construct: Mcm6, yeast MCM subunit, as part of the Cdt1-MCM complex; source: purified Cdt1-MCM complex
T2 sequence (P53091 whole entry, one chain of several): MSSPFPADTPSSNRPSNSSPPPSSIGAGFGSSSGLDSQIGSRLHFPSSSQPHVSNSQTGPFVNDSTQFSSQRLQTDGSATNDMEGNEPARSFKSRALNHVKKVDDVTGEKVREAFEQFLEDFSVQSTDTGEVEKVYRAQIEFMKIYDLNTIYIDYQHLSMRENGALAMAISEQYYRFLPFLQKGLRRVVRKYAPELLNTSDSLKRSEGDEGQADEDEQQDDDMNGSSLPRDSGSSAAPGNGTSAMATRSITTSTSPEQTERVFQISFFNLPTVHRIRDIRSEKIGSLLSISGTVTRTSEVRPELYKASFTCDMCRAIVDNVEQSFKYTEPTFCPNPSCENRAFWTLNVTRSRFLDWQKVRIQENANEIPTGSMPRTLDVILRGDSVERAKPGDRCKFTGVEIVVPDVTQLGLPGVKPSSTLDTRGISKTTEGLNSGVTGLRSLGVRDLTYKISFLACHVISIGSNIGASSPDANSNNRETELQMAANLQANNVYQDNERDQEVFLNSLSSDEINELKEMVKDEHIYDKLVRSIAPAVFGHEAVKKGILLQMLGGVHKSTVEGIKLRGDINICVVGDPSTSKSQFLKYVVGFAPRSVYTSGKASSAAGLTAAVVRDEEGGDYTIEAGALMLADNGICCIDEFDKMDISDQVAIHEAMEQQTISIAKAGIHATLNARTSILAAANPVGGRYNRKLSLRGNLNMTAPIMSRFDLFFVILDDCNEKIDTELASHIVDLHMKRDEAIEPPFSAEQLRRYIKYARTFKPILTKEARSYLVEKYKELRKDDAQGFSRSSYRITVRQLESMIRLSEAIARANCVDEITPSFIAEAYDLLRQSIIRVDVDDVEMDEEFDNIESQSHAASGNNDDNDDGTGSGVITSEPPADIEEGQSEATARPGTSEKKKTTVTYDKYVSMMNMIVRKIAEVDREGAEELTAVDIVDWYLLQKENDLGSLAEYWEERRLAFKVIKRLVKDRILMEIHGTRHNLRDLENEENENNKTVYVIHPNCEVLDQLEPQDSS

T1 sequence (P53091 whole entry): as the sequence (P53091 whole entry, one chain of several) above

B1: Cdt1 FLAG (natural protein, S. cerevisiae, UniProt P47112 1-604, looked up)
chain: MSGTANSRRKEVLRVPVIDLNRVSDEEQLLPVVRAILLQHDTFLLKNYANKAVLDALLAGLTTKDLPDTSQGFDANFTGTLPLEDDVWLEQYIFDTDPQLRFDRKCRNESLCSIYSRLFKLGLFFAQLCVKSVVSSAELQDCISTSHYATKLTRYFNDNGSTHDGADAGATVLPTGDDFQYLFERDYVTFLPTGVLTIFPCAKAIRYKPSTMATTDNSWVSIDEPDCLLFHTGTLLARWSQGMHTTSPLQIDPRANIVSLTIWPPLTTPISSKGEGTIANHLLEQQIKAFPKVAQQYYPRELSILRLQDAMKFVKELFTVCETVLSLNALSRSTGVPPELHVLLPQISSMMKRKIVQDDILKLLTIWSDAYVVELNSRGELTMNLPKRDNLTTLTNKSRTLAFVERAESWYQQVIASKDEIMTDVPAFKINKRRSSSNSKTVLSSKVQTKSSNANALNNSRYLANSKENFMYKEKMPDSQANLMDRLRERERRSAALLSQRQKRYQQFLAMKMTQVFDILFSLTRGQPYTETYLSSLIVDSLQDSNNPIGTKEASEILAGLQGILPMDISVHQVDGGLKVYRWNSLDKNRFSKLLQIHKSKQQD
notes: Cdt1, S. cerevisiae, FLAG-tagged; also called FLAG-tagged Cdt1; source: purified; alone for the pull-downs, within the MCM-Cdt1 FLAG complex for the crosslinking
binding result (Mcm6): binds | binding result [1]: binds
